Test results taken from publication PMC9127112, “Opening opportunities for Kd determination and screening of MHC peptide complexes” (Communications Biology, 2022).
Blank lines part the entries; values can stand above or below the binder they belong to.

Tests used:
[1] = target: empty disulfide-stabilized HLA-A*02:01(Y84C/A139C) in complex with beta-2 microglobulin (human); experiment: isothermal analysis of nanoscale
[2] = target: empty disulfide-stabilized HLA-A*02:01(Y84C/A139C) complex of heavy chain and beta-2 microglobulin (human); experiment: native MS
[3] = target: empty disulfide-stabilized HLA-A*02:01(Y84C/A139C) complex of heavy chain and beta-2 microglobulin (human); experiment: nanoscale differential scanning f

Kd [1]: 360 nM
B1: GV9 (…), simplified NV9 derivative that retains the anchor residues L and V (peptide)
peptide: GLGGGGGGV

other [2]: 43%
other [3]: 6.4 K
B2: GV9, simplified NV9 derivative that retains the anchor residues L and V (peptide)
peptide: GLGGGGGGV
